Data reported in patent publication US20210290759A1 (BRAVOVAX, published 2021).

B1: recombinant VZV gE protein (gE extracellular region), expressed in eukaryotic cells from recombinant adenovirus (other)
chain: SVLRYDDFHIDEDKLDTNSVYEPYYHSDHAESSWVNRGESSRKAYDHNSPYIWPRNDYDGFLENAHEHHGVYNQGRGIDSGERLMQPTQMSAQEDLGDDTGIHVIPTLNGDDRHKIVNVDQRQYGDVFKGDLNPKPQGQRLIEVSVEENHPFTLRAPIQRIYGVRYTETWSFLPSLTCTGDAAPAIQHICLKHTTCFQDVVVDVDCAENTKEDQLAEISYRFQGKKEADQPWIVVNTSTLFDELELDPPEIEPGVLKVLRTEKQYLGVYIWNMRGSDGTSTYATFLVTWKGDEKTRNPTPAVTPQPRGAEFHMWNYHSHVFSVGDTFSLAMHLQYKIHEAPFDLLLEWLYVPIDPTCQPMRLYSTCLYHPNAPQCLSHMNSGCTFTSPHLAQRVASTVYQNCEHADNYTAYCLGISHMEPSFGLILHDGGTTLKFVDTPESLSGLYVFVVYFNGHVEAVAYTVVSTVDHFVNAIEERGFPPTAGQPPATTKPKEITPVNPGTSPLIR
B2: ASF fusion protein (N-terminal D0-D1-gE-C-terminal D1-D0, LT2) (other)
chain: AQVINTNSLSLLTQNNLNKSQSALGTAIERLSSGLRINSAKDDAAGQAIANRFTANIKGLTQASRNANDGISIAQTTEGALNEINNNLQRVRELAVQSANSTNSQSDLDSIQAEITQRLNEIDRVSGQTQFNGVKVLAQDNTLTIQVGANDGETIDIDLKQINSQTLGLDTLNVQGGGGSGGGGSGGGGSSVLRYDDFHIDEDKLDTNSVYEPYYHSDHAESSWVNRGESSRKAYDHNSPYIWPRNDYDGFLENAHEHHGVYNQGRGIDSGERLMQPTQMSAQEDLGDDTGIHVIPTLNGDDRHKIVNVDQRQYGDVFKGDLNPKPQGQRLIEVSVEENHPFTLRAPIQRIYGVRYTETWSFLPSLTCTGDAAPAIQHICLKHTTCFQDVVVDVDCAENTKEDQLAEISYRFQGKKEADQPWIVVNTSTLFDELELDPPEIEPGVLKVLRTEKQYLGVYIWNMRGSDGTSTYATFLVTWKGDEKTRNPTPAVTPQPRGAEFHMWNYHSHVFSVGDTFSLAMHLQYKIHEAPFDLLLEWLYVPIDPTCQPMRLYSTCLYHPNAPQCLSHMNSGCTFTSPHLAQRVASTVYQNCEHADNYTAYCLGISHMEPSFGLILHDGGTTLKFVDTPESLSGLYVFVVYFNGHVEAVAYTVVSTVDHFVNAIEERGFPPTAGQPPATTKPKEITPVNPGTSPLIRGGGGSGGGGSGGGGSKAQPDLAEAAATTTENPLQKIDAALAQVDTLRSDLGAVQNRFNSAITNLGNTVNNLTSARSRIEDSDYATEVSNMSRAQILQQAGTSVLAQANQVPQNVLSLLR
B3: ACF fusion protein (gE-N-terminal D0-D1-C-terminal D1-D0, LT2) (other)
chain: SVLRYDDFHIDEDKLDTNSVYEPYYHSDHAESSWVNRGESSRKAYDHNSPYIWPRNDYDGFLENAHEHHGVYNQGRGIDSGERLMQPTQMSAQEDLGDDTGIHVIPTLNGDDRHKIVNVDQRQYGDVFKGDLNPKPQGQRLIEVSVEENHPFTLRAPIQRIYGVRYTETWSFLPSLTCTGDAAPAIQHICLKHTTCFQDVVVDVDCAENTKEDQLAEISYRFQGKKEADQPWIVVNTSTLFDELELDPPEIEPGVLKVLRTEKQYLGVYIWNMRGSDGTSTYATFLVTWKGDEKTRNPTPAVTPQPRGAEFHMWNYHSHVFSVGDTFSLAMHLQYKIHEAPFDLLLEWLYVPIDPTCQPMRLYSTCLYHPNAPQCLSHMNSGCTFTSPHLAQRVASTVYQNCEHADNYTAYCLGISHMEPSFGLILHDGGTTLKFVDTPESLSGLYVFVVYFNGHVEAVAYTVVSTVDHFVNAIEERGFPPTAGQPPATTKPKEITPVNPGTSPLIRGGGGSGGGGSGGGGSAQVINTNSLSLLTQNNLNKSQSALGTAIERLSSGLRINSAKDDAAGQAIANRFTANIKGLTQASRNANDGISIAQTTEGALNEINNNLQRVRELAVQSANSTNSQSDLDSIQAEITQRLNEIDRVSGQTQFNGVKVLAQDNTLTIQVGANDGETIDIDLKQINSQTLGLDTLNVQSPGISGGGGGILDSMGKAQPDLAEAAATTTENPLQKIDAALAQVDTLRSDLGAVQNRFNSAITNLGNTVNNLTSARSRIEDSDYATEVSNMSRAQILQQAGTSVLAQANQVPQNVLSLLR
B4: ANF fusion protein (N-terminal D0-D1-C terminal D1-D0-gE, LT2) (other)
chain: AQVINTNSLSLLTQNNLNKSQSALGTAIERLSSGLRINSAKDDAAGQAIANRFTANIKGLTQASRNANDGISIAQTTEGALNEINNNLQRVRELAVQSANSTNSQSDLDSIQAEITQRLNEIDRVSGQTQFNGVKVLAQDNTLTIQVGANDGETIDIDLKQINSQTLGLDTLNVQSPGISGGGGGILDSMGKAQPDLAEAAATTTENPLQKIDAALAQVDTLRSDLGAVQNRFNSAITNLGNTVNNLTSARSRIEDSDYATEVSNMSRAQILQQAGTSVLAQANQVPQNVLSLLRGGGGSGGGGSGGGGSSVLRYDDFHIDEDKLDTNSVYEPYYHSDHAESSWVNRGESSRKAYDHNSPYIWPRNDYDGFLENAHEHHGVYNQGRGIDSGERLMQPTQMSAQEDLGDDTGIHVIPTLNGDDRHKIVNVDQRQYGDVFKGDLNPKPQGQRLIEVSVEENHPFTLRAPIQRIYGVRYTETWSFLPSLTCTGDAAPAIQHICLKHTTCFQDVVVDVDCAENTKEDQLAEISYRFQGKKEADQPWIVVNTSTLFDELELDPPEIEPGVLKVLRTEKQYLGVYIWNMRGSDGTSTYATFLVTWKGDEKTRNPTPAVTPQPRGAEFHMWNYHSHVFSVGDTFSLAMHLQYKIHEAPFDLLLEWLYVPIDPTCQPMRLYSTCLYHPNAPQCLSHMNSGCTFTSPHLAQRVASTVYQNCEHADNYTAYCLGISHMEPSFGLILHDGGTTLKFVDTPESLSGLYVFVVYFNGHVEAVAYTVVSTVDHFVNAIEERGFPPTAGQPPATTKPKEITPVNPGTSPLIR

Experiments:
[1] = biological target: TLR-5 receptor on THP-1 cells (UniProt O60602); test: cell-based or functional assay
TLR-5 receptor on THP-1 cells (UniProt O60602), sequence (O60602 21-858 limits assumed): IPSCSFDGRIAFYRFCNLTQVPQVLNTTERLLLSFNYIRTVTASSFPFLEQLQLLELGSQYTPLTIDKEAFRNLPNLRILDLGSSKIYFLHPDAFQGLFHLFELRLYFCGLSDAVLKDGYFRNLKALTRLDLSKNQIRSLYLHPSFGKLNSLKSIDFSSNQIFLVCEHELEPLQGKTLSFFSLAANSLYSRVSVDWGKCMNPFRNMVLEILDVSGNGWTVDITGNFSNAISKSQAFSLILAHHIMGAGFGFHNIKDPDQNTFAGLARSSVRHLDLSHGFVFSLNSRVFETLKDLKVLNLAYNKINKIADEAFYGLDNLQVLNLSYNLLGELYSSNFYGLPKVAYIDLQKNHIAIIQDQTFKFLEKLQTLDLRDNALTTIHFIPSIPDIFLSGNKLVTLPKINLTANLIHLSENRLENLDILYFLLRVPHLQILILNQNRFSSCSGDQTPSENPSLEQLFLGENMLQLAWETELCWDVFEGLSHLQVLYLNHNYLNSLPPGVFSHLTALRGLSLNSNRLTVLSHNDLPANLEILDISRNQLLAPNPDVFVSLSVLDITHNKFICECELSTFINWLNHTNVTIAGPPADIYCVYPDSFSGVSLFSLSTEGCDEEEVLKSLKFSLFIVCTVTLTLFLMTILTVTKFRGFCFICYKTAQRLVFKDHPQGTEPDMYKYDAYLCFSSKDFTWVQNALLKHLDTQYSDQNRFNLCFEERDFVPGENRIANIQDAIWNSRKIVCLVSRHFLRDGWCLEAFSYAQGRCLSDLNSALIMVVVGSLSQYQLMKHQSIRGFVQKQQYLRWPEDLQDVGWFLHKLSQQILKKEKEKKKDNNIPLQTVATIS

[2] = biological target: TLR-5 receptor on THP-1 cells (UniProt O60602 21-858); test: cell-based or functional assay
TLR-5 receptor on THP-1 cells (UniProt O60602 21-858), sequence (O60602 21-858 limits assumed): as above

Molecule | IL-8 content in THP-1 supernatant, stimulation at 2.5 ug/mL [1] | In vitro relative potency (%), IL-8 [1] | In vitro relative potency (%), TNF-α [1] | TNF-α content in THP-1 supernatant, stimulation at 2.5 ug/mL [1] | IL-8 content in THP-1 supernatant, stimulation at 5 ug/mL [2] | In vitro relative potency (%), IL-8 [2] | In vitro relative potency (%), TNF-α [2] | TNF-α content in THP-1 supernatant, stimulation at 5 ug/mL [2]
endotoxin-free flagellin protein (Alpha Diagnostic) (ligand) | 19.6 ng | 100% | 100% | 969 pg | – | – | – | –
B1 | – | – | – | – | 0 ng | 0% | 0% | 0 pg
B2 | – | – | – | – | 27.8 ng | 142% | 104% | 1000 pg
B3 | – | – | – | – | 6.41 ng | 32.7% | 11.6% | 112 pg
B4 | – | – | – | – | 10.8 ng | 55.3% | 57% | 552 pg
